Laboratory results as given in publication PMC9169775, “Structural conservation among variants of the SARS-CoV-2 spike postfusion bundle” (Proceedings of the National Academy of Sciences of the …, 2022).

Target: the molecule itself
Assay: SDS-PAGE with or without boiling (SDS-resistant oligomer); purified scaffolded HR1HR2 bundle and scaffold alone, with or without boiling

B1: Dps4 from Nostoc punctiforme (NpDps4), scaffold alone (natural protein)
chain: ETQTLLRNFGNVYDNPVLLDRSVTAPVTEGFNVVLASFQALYLQYQKHHFVVEGSEFYSLHEFFNESYNQVQDHIHEIGERLDGLGGVPVATFSKLAELTCFEQESEGVYSSRQMVENDLAAEQAIIGVIRRQAAQAESLGDRGTRYLYEKILLKTEERAYHLSHFLAKDSLTLGFVQAA
notes: Dps4 from Nostoc punctiforme (NpDps4); Construct details in SI Appendix, Supplementary Notes; also called the scaffold alone; source: E. coli BL21(DE3), purified (Ni-NTA, SEC); copies: 12
  stoichiometry N: 12
